Experimental findings from PMC5691071, “Single molecule multiplexed nanopore protein screening in human serum using aptamer modified DNA carriers” are described below.

For the series, the target named is acetylcholinesterase (AChE) (UniProt O42275 24-633). In words: single-molecule nanopore; 100 pM lambda DNA carrier also carrying TBA probe and thrombin, 100 mM KCl; Nanopore: 100 mM KCl Tris-EDTA, pH 8, 45 min incubation; EMSA thrombin: 140 mM NaCl, 20 mM MgCl2, 20 mM PBS pH 7.4, 45 min; EMSA AChE: 2.7 mM KCl, 4 mM MgCl2, PBS pH 7.4, 1 h; temperature not stated. Particulars: protein: commercial; chain copies: 4; free oligo in EMSA.
Chain of acetylcholinesterase (AChE) (O42275 24-633): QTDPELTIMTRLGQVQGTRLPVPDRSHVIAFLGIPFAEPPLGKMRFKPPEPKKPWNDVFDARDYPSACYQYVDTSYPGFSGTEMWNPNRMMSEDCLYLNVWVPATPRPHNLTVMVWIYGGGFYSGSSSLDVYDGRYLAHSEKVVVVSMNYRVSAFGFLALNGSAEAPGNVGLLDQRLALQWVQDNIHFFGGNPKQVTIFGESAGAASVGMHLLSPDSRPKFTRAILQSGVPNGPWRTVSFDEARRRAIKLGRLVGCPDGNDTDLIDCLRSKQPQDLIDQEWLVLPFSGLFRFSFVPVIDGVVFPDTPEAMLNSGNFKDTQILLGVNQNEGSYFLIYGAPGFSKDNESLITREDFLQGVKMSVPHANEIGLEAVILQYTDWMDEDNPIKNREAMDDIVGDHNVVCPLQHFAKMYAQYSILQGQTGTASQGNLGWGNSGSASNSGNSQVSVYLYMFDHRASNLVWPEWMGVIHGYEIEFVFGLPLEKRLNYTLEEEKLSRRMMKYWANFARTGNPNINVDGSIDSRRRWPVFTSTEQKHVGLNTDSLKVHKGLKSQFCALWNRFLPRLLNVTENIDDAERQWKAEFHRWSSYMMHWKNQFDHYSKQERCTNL

B1: Target ii AChE probe (75 nt) (mixed)
DNA: GGTTGACTGTAGCTCTGGCAGACGTAGTGTGAAGGTACCGGGCGGCGACCTAAGGTGTCGTGCGTAAGTTTTTAA
On to B1, for which the binding result is recorded as “binds”.
